The DeepSol protein solubility set

experiment: soluble on expression in E. coli; label from the status in PepcDB or PDB records

Row | Sequence | soluble on expression in E. coli
1 | MSLQPVPDAGPWGDYLCDSPWALINSSIYAMKEIEPEPDFILWTGDDTPHVPDEKLGEAAVLEIVERLTKLIREVFPDTKVYAALGNHDFHPKNQFPAGSNNIYNQIAELWKPWLSNESIALFKKGAFYCEKLPGPSGAGRIVVLNTNLYYTSNALTADMADPGQQFQWLEDVLTDASKAGDMVYIVGHVPPGFFEKTQNKAWFREGFNEKYLKVVRKHHRVIAGQFFGHHHTDSFRMLYDDAGVPISAMFITPGVTPWKTTLPGVVNGANNPAIRVFEYDRATLSLKDMVTYFMNLSQANAQGTPRWELEYQLTEAYGVPDASAHSMHTVLDRIAGDQSTLQRYYVYNSVSEGHHHHHH | soluble
2 | KVILYARVSSSTQKDELVNQVKYLEEQVKEYDLVITDIGSGLNMKRKGFLKLLRMILNNEVSRVVVAYPDRLVRVGFEILEEVCKAHNCEIVVLNQEDKEEELVEDLMSALVSFSGKLYGMRSHEYEKVKKCAEELKNWKI | soluble
3 | IGDFHYGIGASMSYLNTEVVNVNQAYQEYDYLYTKGNRIGQMYGLEAIGFFNSQQEINNSPQQTFSDVAPGDVKYKDQNGDNRIDEKDIVKMFGSSVPRFYFGFNLNFSYKRLELSADFQGMTGVTVSLLNSPLYSPLVSNGNISNTFLNEEISWTPENKTNATMPRLTTQENLNNYRASSLWYRDGSFLKLRNLLVAYTFPKSQTRFADLKVFVQGTNLFSLDNIHFADPEQLGIAYPSTRSYWAGIKLNF | not soluble
4 | MSLCAVTLMACNTAPHSLASSLPVPDALLFPQVQPEYKVAPGDLLLIKVFQVDDLERQVRVDNTGRITLPLLGSIEVSNKGAAELETLIANRYRSDYLQDPQVSVFIQEANARRVTVTGAVTEPGTYPLIGSNLTLQQVIAQAKGINTLASLQNVVVFRTVKGQKMLARFDLARIERGKDPDPEIYPGDLVVVYRSDMRLFLRTLVEITPFVMVWRAYREGHHHHHH | soluble
5 | MGSDKIHHHHHHMLHQANRTGASTRVEFILPDSIEGYIPLKADLHLHTYFSDGHLSPSARVREAWLDGLDAISVTDHIEYHPADTDMIGYLGATLPDGIEAHNVNKKTNVKPKQDLNKSVELTKKAAVSYGLLIIPGIEITREPKGIGHYNALFTTDNNGIYDPDPLTAIRNAKAQGALVMHNHPGWRRESIQHPDFELKAYGEGLIDGIEANNGTAFCPGTIDRAKEDNLFVASTTDLHDTSFEEYIGRGLRRDMTIILAKDRSLDAMRDALENRRTIGYGAGGTLMGQEYLLRQLFMSCVSISPVNGHNIQLKNPTSLRFIIHPDGKNPIVLPEFSSIILSDKDRGFSVDNAWTGADSFLRISL | not soluble
6 | GPGSMGTDKVMSEKLVLEKTKVKSLSDVQRLDMWGEGLTDISLVAKLPRLEVLALAANNVSSLKALQGCELLQELYLRKNKVANLREVTALRVLPTLSVLWLRDNPCAQHPYYREFVLHCCPGLRQLDGVEVTADERKAAAKRLTTKTLDEILGRSACADAASSPRPKKSSGAGSSPAKATDVTPSSTPGGVSDSTATIEERNASSRSVLFTTVAAQRAMLLSIVSLLSELTVESLELLQREVQERVEKQKEKLTKYVQENSQ | soluble
7 | MNYFPDEVIEHVFDFVTSHKDRNAISLVCKSWYKIERYSRQKVFIGNCYAINPERLLRRFPCLKSLTLKGKPHFADFNLVPHEWGGFVLPWIEALARSRVGLEELRLKRMVVTDESLELLSRSFVNFKSLVLVSCEGFTTDGLASIAANCRHLRDLDLQENEIDDHRGQWLSCFPDTCTTLVTLNFACLEGETNLVALERLVARSPNLKSLKLNRAVPLDALARLMACAPQIVDLGVGSYENDPDSESYLKLMAVIKKCTSLRSLSGFLEAAPHCLSAFHPICHNLTSLNLSYAAEIHGSHLIKLIQHCKKLQRLWILDSIGDKGLEVVASTCKELQELRVFPSDLLGGGNTAVTEEGLVAISAGCPKLHSILYFCQQMTNAALVTVAKNCPNFIRFRLCILEPNKPDHVTSQPLDEGFGAIVKACKSLRRLSLSGLLTDQVFLYIGMYANQLEMLSIAFAGDTDKGMLYVLNGCKKMKKLEIRDSPFGDTALLADVSKYETMRSLWMSSCEVTLSGCKRLAEKAPWLNVEIINENDNNRMEENGHEGRQKVDKLYLYRTVVGTRMDAPPFVWIL | not soluble
8 | MCMEKFYKVGTIVNTQGLQGEVRVMPSTDFAQERFSKGSVLALFDDKDNYIQDLKVKSGRPQKNFYVVKFEGFYHINDVEKYKGYIVKIAEENQEDLDDGEFYYHEIIGSDVYENDILIGQISEILQPGANDVWVVKRKGKRDLLLPYIPPVILNVDVNQHRVDVSIMEGLDDLEHHHHHH | soluble
9 | MSYSPSLKEIIAILQKYTSKNYQSNCKTRPDGKLELSLNGVFEEIVKTPGKTRYVTHKQLDQKLKDFKQDLMVELHDTFATKTDLKESEARINQKLEALIQIVMVQGEQIKVHGEQINKLTQAVEKQGEKIEAQGQQIQKVNETLNFVVESLGSIHKRLDSMEGRLDSMENRLDKLESKLEHHHHHH | not soluble
10 | MAHHHHHHMLRLLPLRLASKVTAGNAKNQAGHPRRKAKLFHVIPGTPVTPMEKLKEQRRRYGQDRHSRLPEYRPGKNVRLDPNTFTLYATTKGVMTIRESRINPKYKWLEVEPDIQKVYRSSQMRRALAARGMTSQMVEKNEHYRSEMDLLLEPHWRQRVMRVPKATERFKDPNLFVRGVITELTPMDRYCYE | not soluble
11 | MGGWIRNIGRYLSYLVDDTFEEYAYDVVDGIAKARTQEELLEGVYKALRLAPKLKKKAESKGCPPPRIPSPEDIEALEEKVEQLSNPKDLRKLAVSLALWAFASWNNCPKKGKGTEGGVELEHHHHHH | soluble
12 | MSMPRYYEYRHVVGFEETNLVGNVYYVNYLRWQGRCREMFLYEHAPEILDELRADLKLFTLKAECEFFAELAPFDRLAVRMRLVELTQTQMELGFDYLRLGGDDLLVARGRQRIACMRGPNGRTEPVRVPAGLVRAFAPFRSATVGQ | soluble
13 | MYRNFFSLSELPFSISPDPKYLFMSERHREALTHLTYGLGEVGGFALLTGEVGTGKTTISRCLMEQLPQNTQAAFILNPTLSCQELLATLCDQLKIRYRKTGASLKTLTDKISEKLLKNHENDINTLLIIDEAQHLQPEVLEQLRLLTNLETNTKKLLQVILIGQPELQQLLQRRDLRQL | not soluble
14 | KNVNRVLSAEALKPGMLLTGTVSSLEDHGYLVDIGVDGTRAFLPLLKAQEYIRQKNKGAKLKVGQYLNCIVEKVKGNGGVVSLSVGHSEVSTAIATEQQSWNLNNL | soluble
15 | MSLNLETPSQENLNFMLTEITTKLKMVNVGVFENLELDSVDYNALIDIYQLIKRKSNFSPREMQLFAEELRRIRKEGHHHHHH | soluble
16 | MQFSLVIPVYNAGMMWPEVIRSIKSQTIQPECVIIIDSSSTDNTVAYATEAGFEVYHIDKSTFDHGGTRSMALERVNTEFVIYMTQDAILQNDEAFFYLLSAFNNEEVGAVYGRQLPHHDANPLATHARLHSYGEVGYVTSMKDDFPQGFRKAFMSNSFSGYRVSTLRQIGGFPAKLILGEDSYVAARMLSTGVSVGYIPQALARHSHNYSVGEEFKRYFDIGVFHKTQEWMLASLGKVEGEGVKFALGQICYLLKSNYYHYIPFSIASSGAKYLGYKLGKNYHRLNRTLCKKLSMYKSYWNSSVLEHHHHHH | soluble
17 | MSLSSIRKKDVERFILSDDYKPMVLKELYKKFRAKTREQRKKVREVVKKLEKEGRIFRDSRGRYRKLGEDLKVGTIEFTRSGYVAFVITDDFEEIAVPVEDTKYAMHKDRVVVEITGTWRGLPRGRVVRVLERGLKRVVGVFDHKGTFGFVVPDDPKIAYDFYVAPENIDGAKPNQKVIAEILKYPSPGKNPEAKVVKVLGDLDDPSIDLPSVIVKHDLPEPGEFPEEVIREANAIPARVRKKDLVGRKDLRDKVIVTIDGEDAKDFDDAISVEKLPNGNYLLGVHIADVSHYVKEGSALDQEAFKRGTSVYLIDTVIPMLPFRLSNGICSLVEGKDRLTMSVEMEIDRDGRVVRYDVYPSVIKSKKRMIYERVNEFLEDPSSMKEYEPFKDLIYNAVELAEILREARRKRGAILDIESDEVKVILDENGQVVDIVPRKRGIAEKLIEEFMIRANETVAEIFDHAGLPFMYRVHEEPDPETIFQLKNYLEAMGIRAKFSHKIHPGMLQKLLEKVKDHPLRSSVERLLVRSMKRAMYSAVNIGHFGLASYAYTHFTSPIRRYPDLVVHRLLKLYLEQNGYFTPEQIEKFSKVLPKIAKHCSRRERVADEAEWDLVAMKKVEYIARHIGEVFNVVVTNITKFGLFVEIPEKSISGLVHISTLDDYYYYDETRNMLIGKRKGKVFRLGDVLKAKVVRADKIRGEIDFVLVEEDEEEGHHHHHH | not soluble
18 | MGSDKIHHHHHHVVAVNRAVFLDRDGVINKDHGYVHQVDDFEYIEGVFEACLALKKMGYKLVVVTNQSGIARGMYSEDQFHSLTEWMDWNFADKGVDLDGIYYCPHHAEKGMGEYKVDCDCRKPKPGMLNDAAKFLKVDLSQSVMVGDKADDMQAAKAAGVPTRILVRSGKVIADSSDATIVLDSIADVPDYLKA | not soluble
19 | MMFNFYQFLYNLQNVSPFIDFSVLKQLTHTKMRENEPARFETRSFSQLIDHARSWKTEVRGMTTQGFTKISLMRAEKDRLNMYAISSVPGTNTQSIFSVTIPLELVEKAQVADRKFELKLKSGYNVDSYIRKTPPSAEFTLQCERQRSQVVTGISDYEIRNGKMILMAGDQLFRYNPLNEALAAIPIAVPDDQSSTEPMDISEGSITSGTKGCSNEAPQSSTVPPVTRIPIKKPTTSTEKPATAPPTNNFVSSAKVCPADSSLLAYVLNKQVYIEKNGKIIHRTSSNSKHITNGVPSYIVQEELERFEGIWWSESKTRLLYEHVNEEKVAESQFGVNGDPPVAPMKYPRAGTKNAYSTLRMVILENGKAYDVPLKDEVIYKHCPFYEYITRAGFFSDGTTVWVQVMSRDQAQCSLLLIPYTDFLLPEELGGSIKEDNLQLSTDLNMGVWDDKSHEETMEKPPRGKLRGTVQIHKARNDYWINTHNAIYPLKITDEEHPMYEFIYCLEKPNGSCLALISAELDQNGYCRHTEEKLLMAENFSINKSMGIVVDEVRELVYYVANESHPTEWNICVSHYRTGQHAQLTESGICFKSERANGKLALDLDHGFACYMTSVGSPAECRFYSFRWKENEVLPSTVYAANITVSGHPGQPDLHFDSPEMIEFQSKKTGLMHYAMILRPSNFDPYKKYPVFHYVYGGPGIQIVHNDFSWIQYIRFCRLGYVVVFIDNRGSAHRGIEFERHIHKKMGTVEVEDQVEGLQMLAERTGGFMDMSRVVVHGWSYGGYMALQMIAKHPNIYRAAIAGGAVSDWRLYDTAYTERYMGYPLEEHVYGASSITGLVEKLPDEPNRLMLVHGLMDENVHFAHLTHLVDECIKKGKWHELVIFPNERHGVRNNDASIYLDARMMYFAQQAIQGFGPTTAAPRQGPL | not soluble
20 | MGSDKIHHHHHHMNTTHAVPSITPNNDPWEAYDDIKMFGKPTLTNIEVTTTTLCNMRCEHCAVGYTLQTKDPDALPLDLLLRRLDEIPHLRAFSITGGEPMLSKKSVESYVVPLLRYAHERGARTQINSNLTLNIERYEKILPYLDVLHISHNYGSINDFTDIGFAVMERKPSIEQREALFHRMVENAKMLTQEGVFVSAETMINKRTLPHLEKIHEQIVSMGCQRHEVHPMYPSDFASALDVASLDEIRKGIHRLLDARDKKTWMLFGTLPFYPCSDQEEDLMLLKRLYGEPNVTVRNDPDGRSRLNVNLFDGNIIVTDFGDTPPLGNIMTTSFIEAYEKWQHSEISKELSCHCPMAECLGPNILVKNTYYRGVDFHKRKAVLHK | not soluble
